Assay results reported in IntAct's records for PubMed 21151042.

B1: Bcl-2-like protein 11 (Mus musculus), O54918-1 (parent)
chain: MAKQPSDVSSECDREGGQLQPAERPPQLRPGAPTSLQTEPQGNPDGEGDRCPHGSPQGPLAPPASPGPFATRSPLFIFVRRSSLLSRSSSGYFSFDTDRSPAPMSCDKSTQTPSPPCQAFNHYLSAMASIRQSQEEPEDLRPEIRIAQELRRIGDEFNETYTRRVFANDYREAEDHPQMVILQLLRFIFRLVWRRH
B2: Bcl-2-like protein 11 (Mus musculus), O54918-1 (parent)
chain: B1 chain
partner: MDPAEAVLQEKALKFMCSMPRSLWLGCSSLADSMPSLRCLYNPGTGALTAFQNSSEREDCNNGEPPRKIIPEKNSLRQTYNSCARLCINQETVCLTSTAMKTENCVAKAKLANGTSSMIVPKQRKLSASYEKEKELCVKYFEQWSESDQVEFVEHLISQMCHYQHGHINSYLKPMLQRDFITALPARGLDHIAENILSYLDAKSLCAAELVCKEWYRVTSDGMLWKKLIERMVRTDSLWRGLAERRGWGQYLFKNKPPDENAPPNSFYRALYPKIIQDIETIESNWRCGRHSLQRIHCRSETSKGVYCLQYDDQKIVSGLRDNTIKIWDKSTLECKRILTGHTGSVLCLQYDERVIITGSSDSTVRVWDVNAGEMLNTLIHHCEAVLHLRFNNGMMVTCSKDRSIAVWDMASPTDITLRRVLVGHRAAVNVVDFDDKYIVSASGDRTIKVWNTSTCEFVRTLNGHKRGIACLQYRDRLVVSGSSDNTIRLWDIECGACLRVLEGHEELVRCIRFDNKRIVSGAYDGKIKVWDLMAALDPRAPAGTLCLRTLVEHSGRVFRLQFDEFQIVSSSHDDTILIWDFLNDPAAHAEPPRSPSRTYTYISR

Variants of: B1
Details: with kapca_human PRKACA

effect of a mutation on the interaction	Variant
disrupting interaction	MAKQPSDVSSECDREGGQLQPAERPPQLRPGAPTSLQTEPQGNPDGEGDRCPHGSPQGPLAPPASPGPFATRSPLFIFVRRSALLSRSSSGYFSFDTDRSPAPMSCDKSTQTPSPPCQAFNHYLSAMASIRQSQEEPEDLRPEIRIAQELRRIGDEFNETYTRRVFANDYREAEDHPQMVILQLLRFIFRLVWRRH [S83A]

Variants of: B2
Details: with fbw1a_mouse Btrc

effect of a mutation on the interaction	Variant
increasing interaction	MAKQPSDVSSECDREGGQLQPAERPPQLRPGAPTSLQTEPQGNPDGEGDRCPHGSPQGPLAPPASPGPFATRSPLFIFVRRSALLSRSSSGYFSFDTDRSPAPMSCDKSTQTPSPPCQAFNHYLSAMASIRQSQEEPEDLRPEIRIAQELRRIGDEFNETYTRRVFANDYREAEDHPQMVILQLLRFIFRLVWRRH [S83A]
